# Laboratory results published in patent US20080274959A1, “Actinomadura Chromoprotein, Apoprotein and Gene Cluster” (Wyeth, priority 2004, published 2008).
# B1: Actinomadura sp. 21G792 chromoprotein: non-covalent complex of an apoprotein and a chromophore comprising a nine-membered enediyne, produced by Actinomadura sp. 21G792 (NRRL 30778) (protein)
# chain: DTVTVNYDCVGYPSDIAVTIDAPATAGVGDTATFEVSSVVTTGAPQDLPAGEVVTDMAIVVGGAQSGTITASGLTNEATPAGQPVNMVGGEAQITFTSAGSVTFTPSTTTQVDNGAQCTVVGEAPVGATTVVS
# Tests used:
# [1] = tested on: histone H1 in HeLa cells; assay: Digestion of histone H1 in HeLa cells, immunoblot; type: cell-based; details: overnight at 37° C., anti-histone H1 immunoblot
# Experimental: To study whether the digestion of histones by the chromoprotein occurs in intact cells, HeLa cells were incubated with compounds overnight at 37° C. Cell lysates were analysed by SDS-PAGE and protein immunoblotting using anti-histone H1 antibodies (Santa Cruz Biotechnologies). […] This activity can contribute to antitumor effects by digesting histones in chromatin, making the DNA more accessible for cleavage. This appears to be a unique activity of the chromoprotein enediynes.
# [2] = tested on: KB; assay: IC50 against P-GP expressing cells: KB; type: cell-based; details: P-GP level −, mean of two independent experiments
# Description: (§1) Human PGP (MDR1) is an ATP-dependent efflux pump which is capable of transporting many drugs across cell membranes. High level expression of this protein has been linked to multiple drug resistance of tumors. […] The protein component of the chromoprotein probably protects the chromophore from drug efflux mediated by MDR1, and may be responsible for the beneficial antitumor effects in colon cell lines which often express MDR1.
# [3] = tested on: HT29; assay: Potency against human tumor cell lines: HT29; type: cell-based; details: HT29, Colon
# [4] = tested on: HCT116 p21+/+ and −/− cells; assay: COMET assay for DNA damage; type: cell-based, human; details: both p21-proficient and p21-deficient HCT116 cells
# Description: A COMET assay obtained from Trevigen, Inc. was used to detect DNA damage. HCT116 p21+/+ and −/− cells were subjected to various amounts of the 21G792 chromoprotein and mitoxantrone.
# [5] = tested on: LoVo, HCT116, HT29, LOX, HN5 and PC-3 tumors; assay: In vivo anti-tumor activity, subcutaneous human tumor xenografts; set-up: species or system athymic (nude) mice; details: intravenous in saline, further doses on days 5 and 9; all six xenograft models
# Experimental: The human tumor cell lines or fragments LoVo (colon cancer); HCT116 (colon); HT29 (colon); LOX (melanoma); HN5 (head & neck); and PC-3 (prostate) were implanted under the skin of athymic (nude) mice and allowed to form a tumor mass. When the tumors reached a size of 90-200 mg, the saline control vehicle or various concentrations of the Actinomadura sp. 21G792 chromoprotein formulated in saline was administered intravenously to the mice. The mice received subsequent doses on days 5 and 9 and the relative tumor growth was observed. The results are shown in the graphs in FIG. 24 and FIG. 25. Inhibition of tumor growth of up to 80% for mice receiving the chromoprotein was observed.
# [6] = tested on: KB-V-1; assay: IC50 against P-GP expressing cells: KB-V-1; type: cell-based; details: KB-V-1, P-GP level +++; mean of two independent experiments
# Description: as §1
# [7] = tested on: HCT116 cells; assay: Uptake of FITC-tagged protein, fluorescent microscopy / flow cytometry; type: cell-based, human; details: FITC-labeled
# Description: To determine the mechanism by which the chromoprotein enters cells and exerts its biological activity, the chromoprotein was labeled with a fluorescent tag (FITC) using EZ-Label fluorescent labeling kit (Pierce Biotechnology), according to the manufacturer's recommendation. […] Uptake of labeled material by HCT116 colon carcinoma cells was studied by fluorescent microscopy.
# To determine whether an intact complex of chromophore and apoprotein is required for cellular and nuclear entry, the chromoprotein and apoprotein were labeled with FITC. Uptake of labeled material was studied by fluorescent microscopy.
# To determine whether the entry of chromoprotein into cells is mediated by a saturable (e.g. cell surface receptor-dependent) process, HCT116 cells were incubated with FITC-labeled chromoprotein (FIG. 28, right panel) or apoprotein (FIG. 28, left panel) in the absence or presence of 10-fold excess of unlabeled reagent (unlabelled chromoprotein or apoprotein, respectively). Cells were analysed by fluorescent microscopy (left) or flow cytometry (right). […] Numbers in the histograms are mean channel numbers (FITC fluorescence).
# Other means by which a protein complex can enter cells is pinocytosis, where caveolae in the surface of the cell pinch off to form pinosomes that are free within the cytoplasm of the cell. Since pinocytosis is an energy-dependent process that requires a functional tubulin cytoskeletal network, we examined the effect of sodium azide, an energy uncoupling agent and nocodazole, an agent which disrupts the tubulin cytoskeleton on cellular uptake. HCT116 cells were treated with FITC-labeled apoprotein in the absence or presence of sodium azide or nocodazole.
# [8] = tested on: PC3; assay: Potency against human tumor cell lines: PC3; type: cell-based; details: PC3, Prostate
# [9] = tested on: LOX; assay: Potency against human tumor cell lines: LOX; type: cell-based; details: Melanoma
# [10] = tested on: HCT116; assay: Potency against human tumor cell lines: HCT116; type: cell-based; details: HCT116, Colon
# Experimental: (§2) The Actinomadura sp. 21G792 chromoprotein was added to an isogenic pair of cell lines (p21+/+ and p21−/−).
# [11] = tested on: HN5; assay: Potency against human tumor cell lines: HN5; type: cell-based; details: HN5, Head & Neck
# [12] = tested on: p21−/− cells; assay: Sensitivity of isogenic cell lines, p21−/−; type: cell-based, human
# Description: The p53/p21 checkpoint monitors the integrity of the genome and blocks cell cycle progression in the event of DNA damage. Disruption of the checkpoint by deletion of the p21 gene results in failure to arrest in response to DNA damage ultimately leading to cell death through apoptosis. Since loss of this checkpoint is a hallmark of cancer cells, an isogenic pair of cell lines, wherein one pair of the cell line (p21+/+) has an intact p21 gene and one member (p21−/−) has a deletion in the p21 gene, can be used to screen for potential anti-tumor compounds by identifying molecules that preferentially induce apoptosis in p21-deficient cells.
# as §2
# [13] = tested on: p53/p21 checkpoint in HCT116 (p21+/+ and p21−/−) cells; assay: Induction of the G1/S (p53/p21) checkpoint, immunoblot; type: cell-based, human
# Description: HCT116 (p21+/+ and p21−/−) cells were exposed to the chromoprotein at various concentrations. […] Activation of the DNA damage checkpoint by the Actinomadura sp. […] 21G792 chromoprotein as shown by the cleavage of poly ADP ribose […] (PARP) (FIG. 23B). This is consistent with the lower IC50 value in the p21−/− cells.
# [14] = tested on: KB-8-5; assay: IC50 against P-GP expressing cells: KB-8-5; type: cell-based; details: KB-8-5, P-GP level +; mean of two independent experiments
# Description: as §1
# [15] = target: bovine serum albumin (Bos taurus, UniProt P02769); assay: Specificity of digestion: bovine serum albumin; type: biochemical; details: neutral/acidic protein
# Sequence of bovine serum albumin (P02769 25-607): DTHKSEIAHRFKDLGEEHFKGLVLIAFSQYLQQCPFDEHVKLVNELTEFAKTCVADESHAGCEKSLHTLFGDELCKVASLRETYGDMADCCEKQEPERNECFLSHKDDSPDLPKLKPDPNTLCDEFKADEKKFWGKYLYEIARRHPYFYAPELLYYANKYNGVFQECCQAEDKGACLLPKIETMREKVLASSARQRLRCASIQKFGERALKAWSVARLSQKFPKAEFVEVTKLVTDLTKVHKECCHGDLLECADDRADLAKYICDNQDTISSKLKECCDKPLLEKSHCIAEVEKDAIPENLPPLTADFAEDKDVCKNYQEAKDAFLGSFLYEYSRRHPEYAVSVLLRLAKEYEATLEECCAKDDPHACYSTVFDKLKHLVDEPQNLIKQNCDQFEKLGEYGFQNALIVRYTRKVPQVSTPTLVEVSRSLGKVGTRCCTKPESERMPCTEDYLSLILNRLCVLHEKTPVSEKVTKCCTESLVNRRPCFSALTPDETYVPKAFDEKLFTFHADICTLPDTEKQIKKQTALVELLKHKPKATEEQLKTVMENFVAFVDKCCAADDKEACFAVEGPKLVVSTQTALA
molecule,measurement,setting,value
B1,histone H1 in cells after incubation,[1],reduced histone H1 in cells
same,IC50,[2],10 ng/mL
same,IC50,[3],8 ng/mL
same,concentration at which dose-dependent DNA strand breaks occur,[4],> 100 ng/mL
same,Inhibition of tumor growth,[5],up to 80%
same,IC50,[6],142 ng/mL
same,biological activity after FITC labeling,[7],No loss of biological activity
same,"uptake, apoprotein compared with chromoprotein",[7],similar
same,cellular localisation of label,"[7]; incubation 3-6 hours, fluorescent microscopy",Most of the label appeared in the cytoplasm
same,competition of uptake by 10-fold excess of unlabeled reagent,[7]; microscopy or flow cytometry,No competition of label
same,IC50,[8],22000 ng/mL
same,IC50,[9],1 ng/mL
same,IC50,[10],1000 ng/mL
same,IC50,[11],4 ng/mL
same,Selectivity Ratio,[12]; IC50 p21+/+ versus p21−/−,13
same,IC50,"[12]; p21−/− isogenic cell line, Mean ± SD, n = 3",7000 ± 2000 ng/mL
same,IC50 higher for p21+/+ cells than for p21−/− cells,[12]; text statement of the selectivity,13 fold
same,induction of the p21 protein,[13],seen in the p21+/+ cells only
same,phosphorylation of serine-15 of p53,[13],phosphorylation of the serine-15 amino acid residue in p53
same,activation of the p53 checkpoint,"[13]; HCT116 p21+/+ and p21−/−, various concentrations",activation of the p53 checkpoint for all tested concentrations
same,induction of apoptosis (PARP cleavage),[13]; p21−/− compared with p21+/+ cells,preferentially observed in p21−/− cells
same,IC50,[14],6 ng/mL
same,cleavage of bovine serum albumin,[15],not neutral/acidic proteins such as bovine serum albumin
